Results reported in patent publication US5843749, “Ehk and Ror tyrosine kinases” (Regeneron Pharmaceuticals, Inc., dated 1998).

B1: brain derived neurotrophic factor (human BDNF, produced in CHO cells) (ligand)
chain: HSDPARRGELSVCDSISEWVTAADKKTAVDMSGGTVTVLEKVPVSKGQLKQYFYETKCNPMGYTKEGCRGIDKRHWNSQCRTTQSYVRALTMDSKKRIGWRFIRIDTSCVCTLTIKRGR
modifications: radioiodinated (125I, lactoperoxidase method) where used as the labeled ligand
B2: neurotrophin-3 (human NT-3, produced in CHO cells) (ligand)
chain: YAEHKSHRGEYSVCDSESLWVTDKSSAIDIRGHQVTVLGEIKTGNSPVKQYFYETRCKEARPVKNGCRGIDDKHWNSQCKTSQTYVRALTSENNKLVGWRWIRIDTSCVCALSRKIGRT
modifications: radioiodinated (125I, lactoperoxidase method) where used as the labeled ligand
B3: Murine 2.5S NGF (ligand)
chain: SSTHPVFHMGEFSVCDSVSVWVGDKTTATDIKGKEVTVLAEVNINNSVFRQYFFETKCRASNPVESGCRGIDSKHWNSYCTTTHTFVKALTTDEKQAAWRFIRIDTACVCVLSRKATR
modifications: radioiodinated (125I, lactoperoxidase method) where used as the labeled ligand

Tests used:
[1] = molecular target: rat trkB (full-length, pCMX-trkB or pLTR-trkB) (rat) (UniProt Q63604)
[2] = molecular target: human low affinity nerve growth factor receptor (LNGFR) (human, UniProt P08138); test: competition of cross-linking, competitor 125I-NT-3, pCMX-LNGFR COS cells
[3] = molecular target: rat trkB (full-length, pCMX-trkB or pLTR-trkB) (rat, UniProt Q63604); test: DSS cross-linking of 125I-NGF to COS cells transfected with pCMX-trkB
Protocol: COS-M5 cells were transiently transfected with either the pCMX-LNGFR, pCMX-trkB, or control vector (pCMX) by the DEAE-dextran transfection protocol. Briefly, COS-M5 cells were plated at a density of 1.5 ×10^6 cells per 100 mm plate 24 hours prior to transfection. For transfection, the cells were cultured in serum-free DMEM containing 400 μg/ml of DEAE-dextran, 1 μM chloroquine, 2 mM glutamine, 20 μg/ml insulin, 5 μg/ml transferrin, 33 nM sodium selenite, and 5 μg of the appropriate DNA for 3 hours and 15 minutes at 37° C. in an atmosphere of 5% CO2. The transfection media was aspirated and replaced with phosphate-buffered saline with 10% DMSO for 2 min. Following this DMSO "shock", the COS-M5 cells were placed into DMEM with 10% FBS, 1% each of penicillin and streptomycin, and 2 mM glutamine for 48 hours.
Cells were harvested in phosphate-buffered saline containing 1 mM EDTA, 1 mg/ml glucose and 25 mM HEPES (PBS-versene) and resuspended at an appropriate density (generally 1 ×10^6 cells per ml) in ice-cold binding buffer A (PBS containing 1 mg/ml each of BSA and glucose). pCMX-trkB or pCMX vector transfected COS-M5 cells (4 ×10^5 cells) were incubated on ice with ^125I-labeled neurotrophins (final concentration estimated to be between 0.1 and 0.25 nM) for 90 minutes in the absence or presence of unlabeled NGF, BDNF or NT-3 (see FIGS. 1 and 3). […]

Row | Binder | dose-response survival assay of trkB-expressing NIH3T3 cells, concentration at which activity is obvious [1] | binding result [2] | dose-response survival assay of trkB-expressing NIH3T3 cells, concentration at which effects are discernible [1] | dose-response survival assay of trkB-expressing NIH3T3 cells, effectiveness against BDNF [1] | binding result [3]
1 | B1 | 0.5 to 5 pM | binds |  |  | 
2 | B2 |  | binds | 50 pM | < 10 fold | 
3 | B3 |  |  |  |  | no binding
